Experimental data published in article PMC4980433 (Molecular Cell, 2016).
One block for each binder: values may come before it.

What was measured:
[1] = biological target: T1, TNKS SAM Y1073A, O95271; assay: ITC; conditions: chain shown with the change; N = 0.72±0.01
T1 chain: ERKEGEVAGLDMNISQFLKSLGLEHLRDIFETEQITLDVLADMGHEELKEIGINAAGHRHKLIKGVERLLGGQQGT

[2] = biological target: TNKS SAM Y1073A (human, UniProt O95271 1018-1093, Y1073A^T1); assay: ITC
[3] = biological target: the molecule itself; assay: crystal structure; SAM domain mutants crystallized; head-to-tail (EH-ML) filaments in the crystals; molecular replacement
[4] = biological target: the molecule itself; assay: ultracentrifugation sedimentation assay; purified SAM domains (25 μM) centrifuged at an average 200,000 x g, 20°C, 1 hr; total, supernatant and pellet on SDS-PAGE with Coomassie staining; polymers partition into the pellet; proteins of Figure 5A affinity purified

Kd [1]: 820 nM | other: ΔH [1]: -6 kcal/mol | other: ΔS [1]: 7.7 cal/mol/deg | Kd [2]: 860 nM
B1: TNKS SAM V1056W (domain or fragment)
chain: ERKEGEVAGLDMNISQFLKSLGLEHLRDIFETEQITLDWLADMGHEELKEIGINAYGHRHKLIKGVERLLGGQQGT

B2: TNKS SAM D1055R (domain or fragment, human, UniProt O95271 1018-1093, looked up)
chain: ERKEGEVAGLDMNISQFLKSLGLEHLRDIFETEQITLRVLADMGHEELKEIGINAYGHRHKLIKGVERLLGGQQGT
notes: SAM domain of human Tankyrase (TNKS), residues 1018-1093, with D1055R; Polymer-breaking mutant used for crystallization (two crystal forms); also called TNKS D1055R^T1 SAM domain
binding result [3]: binds

B3: TNKS2 SAM domain (867-940), wild type (domain or fragment, human, UniProt Q9H2K2 867-940, looked up)
chain: EKKEVPGVDFSITQFVRNLGLEHLMDIFEREQITLDVLVEMGHKELKEIGINAYGHRHKLIKGVERLISGQQGL
notes: SAM domain of human Tankyrase 2 (TNKS2, ARTD6), residues 867-940; Forms polydisperse polymers (filaments); theoretical MW about 9 kDa; also called TNKS2 WT
binding result [4]: binds
